Measurements taken from patent US7521047 (GPC BIOTECH, dated 2009).

Key:
[1] = biological target: T1, human MHC class II DR protein (DRA*0101/DRB1*0401), purified from PRIESS cells (human, UniProt P01903 26-254; P01911 30-266, limits assumed); assay: SPR (BIAcore), Fab, chip density 500 RU MHCII
T1 construct: mature; also called HLA-DR protein; MHCII
T1 MHC II alpha: not shown
T1 MHC II beta: not shown

[2] = biological target: T2, HLA-DR (DRA*0101/DRB1*0401) on PRIESS cells (human, UniProt P01903 26-254; P01911 30-266); assay: cell-based or functional assay
T2 MHC II alpha: not shown
T2 MHC II beta: not shown

BSA [3] = biological target: T3, BSA (bovine, UniProt P02769 25-607); assay: ELISA, coated antigen
T3 construct: negative control antigen; also called bovine serum albumine

[4] = biological target: T1, human MHC class II DR protein …; assay: ELISA, coated antigen, Fab 100 ng/well, read at 370 nm
Procedure: After washing in PBS the anti-human IgG F(ab')_2-peroxidase-conjugate at a 1:10,000 dilution in TBS (supplemented with 5% w/v non-fat drymilk/0.05% v/v Tween 20) was added to each well for 1 h. Final washes were carried out in PBS followed the addition the substrate POD (Roche).

[5] = biological target: T1, human MHC class II DR protein …; assay: SPR (BIAcore), MHCII on CM5 chip
[6] = biological target: T1, human MHC class II DR protein …; assay: BiaCore, Fab
HLA-DR on LG-2 cells = HLA-DR on LG-2 cells (human); assay: cell-based or functional assay
[7] = biological target: T4, chimeric 0401-IE class II molecule on cells of transgenic mice (human/murine chimera); assay: cell-based or functional assay
[8] = biological target: T1, human MHC class II DR protein …; assay: SPR (BIAcore), MHCII on CM5 chip
[9] = biological target: HLA-DR on KARPAS-422 cells (human); assay: cell-based or functional assay
HLA-DR on RAJI cells = HLA-DR on RAJI cells (human); assay: cell-based or functional assay
HLA-DR on L-363 cells = HLA-DR on L-363 cells (human); assay: cell-based or functional assay
HLA-DR on HC-1 cells = HLA-DR on HC-1 cells (human); assay: cell-based or functional assay
HLA-DR on EOL-1 cells = HLA-DR on EOL-1 cells (human); assay: cell-based or functional assay
HLA-DR on L1236 cells = HLA-DR on L1236 cells (human); assay: cell-based or functional assay
HLA-DR on HDLM-2 cells = HLA-DR on HDLM-2 cells (human); assay: cell-based or functional assay
HLA-DR on HD-MY-Z cells = HLA-DR on HD-MY-Z cells (human); assay: cell-based or functional assay
[10] = biological target: HLA-DR on GRANTA-519 cells (human); assay: cell-based or functional assay
[11] = biological target: HLA-DR on MHH-PREB-1 cells (human); assay: cell-based or functional assay
HLA-DR on MN-60 cells = HLA-DR on MN-60 cells (human); assay: cell-based or functional assay
HLA-DR on LP-1 cells = HLA-DR on LP-1 cells (human); assay: cell-based or functional assay
HLA-DR on SR-786 cells = HLA-DR on SR-786 cells (human); assay: cell-based or functional assay
HLA-DR on DOHH-2 cells = HLA-DR on DOHH-2 cells (human); assay: cell-based or functional assay
HLA-DR on ARH-77 cells = HLA-DR on ARH-77 cells (human); assay: cell-based or functional assay
HLA-DR on BJAB cells = HLA-DR on BJAB cells (human); assay: cell-based or functional assay
HLA-DR on BONNA-12 cells = HLA-DR on BONNA-12 cells (human); assay: cell-based or functional assay
HLA-DR on KM-H2 cells = HLA-DR on KM-H2 cells (human); assay: cell-based or functional assay
[12] = biological target: HLA-DR on RPMI-8226 cells (human); assay: cell-based or functional assay
[13] = biological target: HLA-DR on MHH-CALL-4 cells (human); assay: cell-based or functional assay
[14] = biological target: HLA-DR on KARPAS-299 cells (human); assay: cell-based or functional assay
[15] = biological target: T2, HLA-DR (DRA*0101/DRB1*0401) on PRIESS …; assay: cell-based or functional assay
HLA-DR on L-428 cells = HLA-DR on L-428 cells (human); assay: cell-based or functional assay
HLA-DR on NALM-1 cells = HLA-DR on NALM-1 cells (human); assay: cell-based or functional assay
[16] = biological target: T4, chimeric 0401-IE class II molecule on …; assay: cell-based or functional assay; remark: listed apart in the source
[17] = biological target: T1, human MHC class II DR protein …; assay: BiaCore, IgG4
Procedure: The affinities for anti-HLA antibody fragments of the invention were measured as follows. All measurements were conducted in HBS buffer (20 mM HEPES, 150 mM NaCl, pH 7.4) at a flow rate of 20 µl/min at 25° C. on a BIAcore3000 instrument (Biacore AB, Sweden). MHC class II DR protein (prepared as example 1) was diluted in 100 mM sodium acetate pH 4.5 to a concentration of […], and coupled to a CM5 chip (Biacore AB) using standard EDC-NHS coupling chemistry with subsequent ethanolamine treatment as manufacturers directions. The coating density of MHCII was adjusted to between 500 and 4000 RU. Affinities were measured by injection of 5 different concentrations of the different antibodies and using the standard software of the Biacore instrument. Regeneration of the coupled surface was achieved using 10 mM glycine pH 2.3 and 7.5 mM NaOH.

BSA [18] = biological target: T3, BSA; assay: ELISA, purified coated protein, OD at 370 nm minus background
[19] = biological target: T1, human MHC class II DR protein …; assay: SPR (BIAcore), IgG4 over MHCII on CM5 chip

T3 sequence (P02769 25-607 limits assumed): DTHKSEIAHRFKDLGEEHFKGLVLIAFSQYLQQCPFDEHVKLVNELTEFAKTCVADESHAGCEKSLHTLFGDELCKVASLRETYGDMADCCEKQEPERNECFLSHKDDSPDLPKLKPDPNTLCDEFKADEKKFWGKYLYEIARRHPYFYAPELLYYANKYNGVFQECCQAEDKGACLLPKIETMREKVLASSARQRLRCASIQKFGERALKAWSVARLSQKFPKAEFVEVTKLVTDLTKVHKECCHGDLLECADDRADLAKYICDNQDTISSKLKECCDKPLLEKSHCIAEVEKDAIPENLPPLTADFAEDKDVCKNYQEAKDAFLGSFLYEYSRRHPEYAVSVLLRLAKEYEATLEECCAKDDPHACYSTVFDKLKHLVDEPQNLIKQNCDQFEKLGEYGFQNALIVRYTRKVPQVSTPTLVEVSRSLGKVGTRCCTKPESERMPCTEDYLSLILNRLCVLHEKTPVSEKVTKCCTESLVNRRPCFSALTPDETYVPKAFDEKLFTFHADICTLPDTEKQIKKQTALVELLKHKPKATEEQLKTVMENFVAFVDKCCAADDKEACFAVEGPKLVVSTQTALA

B1: MS-GPC-10 Fab (Fab, V domains shown)
VH: QVQLKESGPALVKPTQTLTLTCTFSGFSLSTSGVGVGWIRQPPGKALEWLALIDWDDDKYYSTSLKTRLTISKDTSKNQVVLTMTNMDPVDTATYYCARQLHYRGGFDLWGQGTLVTVSS
VL: DIVLTQPPSVSGAPGQRVTISCSGSSSNIGSNYVSWYQQLPGTAPKLLIYDNNQRPSGVPDRFSGSKSGTSASLAITGLQSEDEADYYCQSYDLTMGVFGGGTKLTVLG
notes: Fab from pMx9_Fab: VH-CH1 with FLAG tag and STREP tag II, VL-CL; VH residue 1 is Q in Fab; also called E6-Fab; E6
For B1, the Kd [1] was 2860 nM, the koff [1] was 0.063 s⁻¹ and the kon [1] was 22000 M⁻¹ s⁻¹. The “EC50 of cell killing, cross-linked Fab, bivalent agent” value (“EC50 of cell killing … bivalent agent” below) [2] was 33 nM and the binding result (BSA [3]) was “no binding”.

B2: MS-GPC-8-27-41 Fab (Fab, V domains shown)
VH: QVQLKESGPALVKPTQTLTLTCTFSGFSLSTSGVGVGWIRQPPGKALEWLALIDWDDDKYYSTSLKTRLTISKDTSKNQVVLTMTNMDPVDTATYYCARSPRYRGAFDYWGQGTLVTVSS
VL: DIVLTQPPSVSGAPGQRVTISCSGSESNIGNNYVQWYQQLPGTAPKLLIYDNNQRPSGVPDRFSGSKSGTSASLAITGLQSEDEADYYCQSYDMNVHVFGGGTKLTVLG
notes: Fab: VH-CH1 with FLAG tag and STREP tag II, VL-CL; VH residue 1 is Q in Fab; also called 1D09C3
With B2 the ELISA signal [4] was 1.52, the Kd [5] was 2.9 nM and the koff [5] was 0.00049 s⁻¹. For the same binder, the kon [5] was 170000 M⁻¹ s⁻¹, the Kd [6] was 2.93 nM and the koff [6] was 0.00049 s⁻¹. For the same binder, the kon [6] was 167000 M⁻¹ s⁻¹, the “EC50 of cell killing … bivalent agent” value (HLA-DR on LG-2 cells) was 7.2 nM and the “EC50 of cell killing … bivalent agent” value [2] was 7.7 nM. For the same binder, the “IC50 of inhibition of IL-2 secretion from T-Hyb 1 cells” value [7] was 3.6 nM (half the concentration of the Fab), the “Maximum inhibition(%) of IL-2 secretion” value [7] was 100% and the Kd [8] was 2.93 nM. For the same binder, the koff [8] was 0.00049 s⁻¹ and the kon [8] was 167000 M⁻¹ s⁻¹.

B3: MS-GPC-8-27-41 IgG4 (antibody, V domains shown)
VH: QVQLKESGPALVKPTQTLTLTCTFSGFSLSTSGVGVGWIRQPPGKALEWLALIDWDDDKYYSTSLKTRLTISKDTSKNQVVLTMTNMDPVDTATYYCARSPRYRGAFDYWGQGTLVTVSS
VL: DIVLTQPPSVSGAPGQRVTISCSGSESNIGNNYVQWYQQLPGTAPKLLIYDNNQRPSGVPDRFSGSKSGTSASLAITGLQSEDEADYYCQSYDMNVHVFGGGTKLTVLG
notes: also called 1D09C3; IgG form of MS-GPC-8-27-41
In the case of B3, the “% Killing by mAb, 50 nM, 4 h” value [9] is reported as 66%, the “% Killing by mAb, 50 nM, 4 h” value (HLA-DR on RAJI cells) is reported as 84% and the “% Killing by mAb, 50 nM, 4 h” value (HLA-DR on L-363 cells) is reported as 26%. For the same binder, the “% Killing by mAb, 50 nM, 4 h” value (HLA-DR on HC-1 cells) was 93%, the “% Killing by mAb, 50 nM, 4 h” value (HLA-DR on EOL-1 cells) was 69% and the “% Killing by mAb, 50 nM, 4 h” value (HLA-DR on L1236 cells) was 63%. The “% Killing by mAb, 50 nM, 4 h” value (HLA-DR on HDLM-2 cells) was 88%, the “% Killing by mAb, 50 nM, 4 h” value (HLA-DR on HD-MY-Z cells) was 69% and the “% Killing by mAb, 50 nM, 4 h” value [10] was 78%. For the same binder, the “% Killing by mAb, 50 nM, 4 h” value [11] was 4%, the “% Killing by mAb, 50 nM, 4 h” value (HLA-DR on MN-60 cells) was 69% and the “% Killing by mAb, 50 nM, 4 h” value (HLA-DR on LP-1 cells) was 73%. The “% Killing by mAb, 50 nM, 4 h” value (HLA-DR on SR-786 cells) was 53%, the “% Killing by mAb, 50 nM, 4 h” value (HLA-DR on DOHH-2 cells) was 59% and the “% Killing by mAb, 50 nM, 4 h” value (HLA-DR on ARH-77 cells) was 85%. For the same binder, the “% Killing by mAb, 50 nM, 4 h” value (HLA-DR on BJAB cells) was 71%, the “% Killing by mAb, 50 nM, 4 h” value (HLA-DR on BONNA-12 cells) was 92% and the “% Killing by mAb, 50 nM, 4 h” value (HLA-DR on KM-H2 cells) was 86%. For the same binder, the “% Killing by mAb, 50 nM, 4 h” value [12] was 29%, the “% Killing by mAb, 50 nM, 4 h” value [13] was 63% and the “% Killing by mAb, 50 nM, 4 h” value [14] was 82%. For the same binder, the “% Killing by mAb, 50 nM, 4 h” value [15] was 88%, the “% Killing by mAb, 50 nM, 4 h” value (HLA-DR on L-428 cells) was 91% and the “% Killing by mAb, 50 nM, 4 h” value (HLA-DR on NALM-1 cells) was 82%. The “IC50 value for inhibition of T cell proliferation” value [16] was 20 nM, the “EC50 of cell killing, IgG4” value [2] was 1.1 nM and the “IC50 of inhibition of IL-2 secretion from T-Hyb 1 cells” value [7] was 0.28 nM. The “Maximum inhibition(%) of IL-2 secretion” value [7] was 100%, the Kd [17] was 0.6 nM and the koff [17] was 0.00041 s⁻¹. For the same binder, the binding result (BSA [18]) was “no binding”, the Kd [19] was 0.31 nM and the koff [19] was 3.1e-05 s⁻¹. It also gave a kon [19] of 110000 M⁻¹ s⁻¹.
